In the nanobody polyreactivity screen of Harvey et al. (2022):

assay: yeast display, Sf9 membrane polyspecificity reagent, FACS + sequencing; frameworks hold sequencing errors
Summary of the method: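 Galactose induction of a Saccharomyces cerevisiae BJ5465 synthetic nanobody display library ran 36–48 hours. The cells were then stained for 1 hour at 4 °C with 10% biotinylated, detergent-solubilized Sf9 membrane reagent, pulled down on streptavidin microbeads and FACS-sorted into low and high (top ~1%) gates on expression and reagent-binding fluorescence. Labels for polyreactivity follow the gate of origin.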

Sequence | polyreactivity (PSR sort gate)
QVQLVESGGGLVQAGGSLRLSCAASGSTFQWYAMGWYRQAPGKERELVAAINKSGGTTYYADSVKGRFTISRDNAKNTVYLQMNSLKPEDTAVYYCAADTQQRGVYPRWWNPEFDYWGLGTQVTVSS | low polyreactivity
QVQLVESGGGLVQAGGSLRLSCAASGSTFQYNAMAWYRQAPGKEREFVAAITSSGGSTYYADSVKGRFTISRDNAKNTVYLQMNSLKPEDTAVYYCNKRRTRRYDYWGQGTQVTVSS | high polyreactivity
QVQLVESGGGLVQAGGSLRLSCAASGSTFQYNAMGGYRQAPGKERELVASISWSGGSTYYADSVKGRFTISRDNAKNTVYLQMNSLKPEVTAVYYCAADWSDQRDYWGQGTQVTVSS | low polyreactivity
QVQLVESGGGLVQAGGSLRLSCAASGSTFQYNAMGWYRQAPGKEREFVAAISRTGTSTYYADSVKGRFTISRDNAKNTVYLLMNSLKPEDTAVYYCAAKSLRSGMGYWGQGTQVTVTS | high polyreactivity
QVQLVESGGGLVQAGGSLRLSCAASGSTFQYNAMGWYRQAPGKEREFVAAISRTGTSTYYADSVKGRFTISRDNAKNTVYLQMNSLKPEDNAVYYCAAKSLRSGMGYWGQGTQVTVSS | high polyreactivity
QVQLVESGGGLVQAGGSLRLSCAASGSTFQYNAMGWYRQAPGKEREFVAAITNGGGSTYYADSVKGRFTISRDNAKNTVYLQMNSLKPEDTAVYYCNARFRYARYSQRYDYWGQGTQVTVSS | high polyreactivity
QVQLVESGGGLVQAGGSLRLSCAASGSTFQYNAMGWYRQAPGKERELVAAISTGTSTYYADSVKGRFTISRDNAKNTVYLQMNSLKPEDTAVYYCAAEYWGDYTEYNYWGQGTQVTVSS | high polyreactivity
QVQLVESGGGLVQAGGSLRLSCAASGSTFQYNVMGWYRPAPGKERELVATISYSSGRTYYADSVKGRFTISRDNAKNTVYLQMNSLKPEDTAVYYCAAAVRLYFWTSAYKYGYWGQGTQVTVSS | high polyreactivity
QVQLVESGGGLVQAGGSLRLSCAASGSTFQYYAMGWYRQAPGKERELVAAISSGGRTNYADSVKGRFTISRDNAKNTVYLQMNSLKPEDTAVYYCAARWCYTKGEFDYWGQGTQVTVSS | high polyreactivity
QVQLVESGGGLVQAGGSLRLSCAASGSTFRANAMGWYRQAPGKERELVAAITSGGSTNYADSVKGRFTISRDNAKNTVYLQMNCLKPEDTAVYYCADESYQEHSFYVYYGYDYWGQGTQVTVSS | low polyreactivity
QVQLVESGGGLVQAGGSLRLSCAASGSTFRANAMGWYRQAPGKERELVAAITSGGSTNYADSVKGRFTISRDNATNTVYLQMNSLKPEDTAVYYCADESYQEHSFYVYYGYDYWGQGTQVTVSS | low polyreactivity
QVQLVESGGGLVQAGGSLRLSCAASGSTFRANVMGWYRQAPGKEWELVAAITSGGGSTYYADSVKGRFTISRDNAKNTVYLQMNSLKPEDTAVYYCATKRARYSYYYWGQGTQVTVSS | high polyreactivity
QVQLVESGGGLVQAGGSLRLSCAASGSTFRDNAMGWYRQAPGKERELVAAITVIDGTTYYADSVKGRFTISRDNAKNTVYLQMKSLKPEDTAVYYCAADTIWYEYYYWGQGTQVTVSS | low polyreactivity
QVQLVESGGGLVQAGGSLRLSCAASGSTFRDNAMGWYRQAPGKEWELVAAITVIDGTTYYADSVKGRFTLSRDNAKNTVYLQMNSLKPEDTAVYYCAADTIWYEYYYWGQGTQVTVSS | low polyreactivity
QVQLVESGGGLVQAGGSLRLSCAASGSTFRDNTMGWYRQAPGKERELVAAITKSGGSTYYADSVKGRFTISRDTAKNTVYLQMNSLKPEDTAVYYCAAGARPRDKPVYFLYRYDYWGQGTQGTVSS | low polyreactivity
QVQLVESGGGLVQAGGSLRLSCAASGSTFRDYAMGWYRQAPGKERELVAAITSGGTTDYADSVKGRFTISRYNAKNTVYLQMISLKPEDTAVYYCNKDGVVAGYQYDYWGQGTQVTVSS | low polyreactivity

Sequence | polyreactivity (PSR sort gate)
QVQLVESGGGLVQAGGSLRLSCAASGSTFRFYALGWSRQAPGKERELVAAINGSGGSTYYADSVKGRFTISRDNAKNTVYLQMNSLKPEDTAVYYCAATYYILYTSWDEYWGQGTQVTVSS | low polyreactivity
QVQLVESGGGLVQAGGSLRLSCAASGSTFRFYAMGWYRQAPGKEREFVAAISTSGGSTYYADSVKGRFTISRDNAKNTVYLQMISLKPEETAVYYCATRRRIRSSFYYDNDYWGLGTQVTVSS | high polyreactivity
QVQLVESGGGLVQAGGSLRLSCAASGSTFRFYAMGWYRQAPGKERELVAAISSGGSTYYADSVKGRFTISRDNAKNTVYLQMNSLKPEDTAVYYCNARLYYSTFRYYYWGQGTQVTVSS | high polyreactivity
QVQLVESGGGLVQAGGSLRLSCAASGSTFRFYAMGWYRQAPGKERELVAVISSAGSTNYADSVKGRFTISRDNAKNTVYLQMNSLKTEDTAVYYCAAYRRYSIYNYWGQGTQVTVSS | high polyreactivity
QVQLVESGGGLVQAGGSLRLSCAASGSTFRFYTMGWYRQAPGKERELVAAISGSGGSTYYADSVKGRFTISRDNAKNTVYLQMNSLKPEDTADYYCAADKSRNASHRGYWGQGTQVTVSS | low polyreactivity
QVQLVESGGGLVQAGGSLRLSCAASGSTFRFYTMGWYRQAPGKERELVAAISGSGGSTYYADSVKGRFTISRDNAKNTVYLQMNSLKPEDTAVYYCAADKSRYASHRGYWGQGTQVTVSS | low polyreactivity
QVQLVESGGGLVQAGGSLRLSCAASGSTFRGYAMGWYRQAPGKEREFVAAISRRGGTTYYADSVKGRFTISRDNAKNTVDLQMNSRNPEDTAVYYCNAVLYARQRDRWARYDYWGQGTQVTVSS | high polyreactivity
QVQLVESGGGLVQAGGSLRLSCAASGSTFRGYAMGWYRQAPGKERELVAAIISDGTTNYADSVKGRFTISRDNAQTTVYLQMNSLKPEDTAVYYCNAEVQGGRPQFDYWGQGTQVTVSS | low polyreactivity
QVQLVESGGGLVQAGGSLRLSCAASGSTFRGYAMGWYRQAPGKERELVAAITFRGGSTYYADSVKGRFTISRDNAKNTVFLQMNSLKPEDTEVYYCYVRIYGYDYWGQGTQVSVSS | high polyreactivity
QVQLVESGGGLVQAGGSLRLSCAASGSTFRGYAMGWYRQAPGKERELVATITSGGSTKYADSVKGRFTISRDNAKNTVYLQMNSLKPEDTAVYYCNAVPRSWSPYSHWFDYWGQGTQVTVSS | low polyreactivity
QVQLVESGGGLVQAGGSLRLSCAASGSTFRGYAMGWYRQAPGKERELVATITSGGSTNYADSVKGRFTISRDNAKNTVYLQMNSLKPEDTAVYYCNARWVPRYWKYFPANYGYWGLGTQVTVSS | high polyreactivity
QVQLVESGGGLVQAGGSLRLSCAASGSTFRGYAMGWYRQEPGKERELVAAITSGGSTNYADSVKGRFTISRDNAKNTVYLQMISLKPEDTAVYYCNADYTYLYDPNDYWGQGTQVTVSS | low polyreactivity
QVQLVESGGGLVQAGGSLRLSCAASGSTFRGYTMGRNRQAPGKERELVAAISFRGTSTYYADSVKGRFTISRDNAKITVYLQMNSLIPEDTAVDYCAAVYTWGPGYGHDYWGQGTQVTVSS | low polyreactivity
QVQLVESGGGLVQAGGSLRLSCAASGSTFRHNAMGWYRQAPGKERELVAAITRSGGRTFYADSVKGRFTISRDNAKNTVYLQMNSLKPEDTAVYYCWGLGTQVTVSS | low polyreactivity
QVQLVESGGGLVQAGGSLRLSCAASGSTFRHYAMGWYRQAPGKERELVAAISIRGGSTNYADSVKGRFTISRDNAKNTVYLQMNSLKPEDTAVYYCNACRLRYIFKSYDYWGQGTQVTVSS | high polyreactivity
QVQLVESGGGLVQAGGSLRLSCAASGSTFRHYAMGWYRQAPGKERELVAVISWGGTSTYYADSVKGRFTISRDNAKNTVYLQMKSLKPEDTAVYYCNKAYFPIFKGYEMYYWGQGTQVTVSS | low polyreactivity
